Some targets named below: EI2.4.6 (human) (UniProt P02751); E6.2.10 (human) (UniProt P02751); EI1.4.1 (human) (UniProt P02751).
Experiment in all cases: flow cytometry on cells
A general note: Flow cytometry measures light scatter and fluorescence of single cells or particles in a stream.

For “EGFR mutant 404SG (from UniProt P00533 25-1210) (receptor)”, the Kd – broadly, a measure of binding affinity in units of concentration – in the assay with EI2.4.6 (human) turned out to be 2900 pM; with E6.2.10 (human), 960 pM; with EI1.4.1 (human), 850 pM.

For the origin of these results see PMC3927142.
